Laboratory results: patent publication US20080286228A1 (published 2008)
Non-standard residues stand in square brackets, D forms with d. No end group written: not given here.

B1: IPQSLDSWWTSLRRYSFKPMPLaR (peptide)
peptide: IPQSLDSWWTSLRRYSFKPMPL[dA]R
notes: synthetic peptide; also called double-Arg-linked C5a-active construct
B2: natural C5a (ligand, UniProt P01031 678-751, looked up)
chain: TLQKKIEEIAAKYKHSVVKKCCYDGACVNNDETCEQRAARISLGPRCIKAFTECCVVASQLRANISHKDMQLGR
notes: C5a is a fragment of it
B3: IPQSLDSWWTSLRVRRYSFKPMPLaR (peptide)
peptide: IPQSLDSWWTSLRVRRYSFKPMPL[dA]R
notes: synthetic peptide; also called RVRR-containing C5a-active construct
B4: C5a C-terminal decapeptide agonist analog YSFKPMPLaR (peptide)
peptide: YSFKPMPL[dA]R
notes: synthetic peptide; also called C5a agonist

What follows are binders tested against T1, C5a receptor expressed on the surface of human PMNs (human, UniProt P21730 1-350) (assay: cell-based or functional assay).
T1 sequence (looked up): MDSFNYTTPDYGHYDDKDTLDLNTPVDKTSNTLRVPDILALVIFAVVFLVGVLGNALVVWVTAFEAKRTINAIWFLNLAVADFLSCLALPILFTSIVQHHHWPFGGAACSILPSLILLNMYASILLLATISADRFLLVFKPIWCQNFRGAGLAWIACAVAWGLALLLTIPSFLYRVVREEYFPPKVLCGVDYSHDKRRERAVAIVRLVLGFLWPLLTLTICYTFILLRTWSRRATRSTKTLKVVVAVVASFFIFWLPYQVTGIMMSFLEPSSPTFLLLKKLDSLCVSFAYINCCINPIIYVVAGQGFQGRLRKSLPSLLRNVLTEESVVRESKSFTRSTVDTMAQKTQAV
B1 was tested, and the “MPO release from human PMNs, EC50” value was 0.54 µM and the “MPO release from human PMNs, pD2” value was 6.27 -log EC50 (M). With IPQSLDSWWTSLYSFKPMPL[dA]R (synthetic peptide) [IPQSLDSWWTSLYSFKPMPLaR] the “MPO release from human PMNs, EC50” value was 1.58 µM and the “MPO release from human PMNs, pD2” value was 5.8 -log EC50 (M). B2 was tested, and the “MPO release from human PMNs, EC50” value was 0.003 µM and the “MPO release from human PMNs, pD2” value was 8.5 -log EC50 (M). With B3 the “MPO release from human PMNs, EC50” value was 2.15 µM and the “MPO release from human PMNs, pD2” value was 5.61 -log EC50 (M). YSFKPMPL[dA]RRRIPQSLDSWWTSL (synthetic peptide) [YSFKPMPLa[…]] was tested, and the “MPO release from human PMNs, EC50” value was over 1000 µM and the “MPO release from human PMNs, pD2” value was > 3 -log EC50 (M). IPQSLDSWWTSLRRYSFKPMPL[dA]RG (synthetic peptide) [IPQSLDSWWTSLRRYSFKPMPLaRG] was tested, and the “MPO release from human PMNs, EC50” value was 2.56 µM and the “MPO release from human PMNs, pD2” value was 5.59 -log EC50 (M).

Molecular target: T1, C5a receptor expressed on the surface …
Assay: cell-based or functional assay
Remark: another data set of the same source
B1 was tested, and the “smooth muscle contraction of human umbilical artery, EC50” value (shortened to “smooth muscle contraction … EC50”) was 0.161 µM and the “smooth muscle contraction of human umbilical artery, pD2” value (“smooth muscle contraction … pD2” below) was 6.79 -log EC50 (M). With IPQSLDSWWTSLYSFKPMPL[dA]R (synthetic peptide) [IPQSLDSWWTSLYSFKPMPLaR] the “smooth muscle contraction … EC50” value was 0.21 µM and the “smooth muscle contraction … pD2” value was 6.68 -log EC50 (M). With B2 the “smooth muscle contraction … EC50” value was 0.002 µM and the “smooth muscle contraction … pD2” value was 8.77 -log EC50 (M). With B3 the “smooth muscle contraction … EC50” value was 0.18 µM and the “smooth muscle contraction … pD2” value was 6.67 -log EC50 (M). With B4 the “smooth muscle contraction … EC50” value was 0.01 µM and the “smooth muscle contraction … pD2” value was 6.99 -log EC50 (M). With YSFKPMPL[dA]RRRIPQSLDSWWTSL (synthetic peptide) [YSFKPMPLa[…]] the “smooth muscle contraction … EC50” value was 39.4 µM and the “smooth muscle contraction … pD2” value was 4.41 -log EC50 (M). In the case of IPQSLDSWWTSLRRYSFKPMPL[dA]RG (synthetic peptide) [IPQSLDSWWTSLRRYSFKPMPLaRG], the “smooth muscle contraction … EC50” value is reported as 6.78 µM and the “smooth muscle contraction … pD2” value is reported as 5.17 -log EC50 (M).

Each binder was assayed against T1, C5a receptor expressed on the surface … (assay: competition with 125I-C5a on intact human PMNs).
Protocol: Statistical analysis of the values obtained from pharmacologic assays was performed using one-way analysis of variance (ANOVA).
In the case of B1, the IC50 is reported as 416 nM and the “pD2 (-log IC50 (M))” value is reported as 6.38 -log IC50 (M). With IPQSLDSWWTSLYSFKPMPL[dA]R (synthetic peptide) [IPQSLDSWWTSLYSFKPMPLaR] the IC50 was 3690 nM and the “pD2 (-log IC50 (M))” value was 5.43 -log IC50 (M). B2 was tested, and the IC50 was 0.4 nM and the “pD2 (-log IC50 (M))” value was 9.43 -log IC50 (M). In the case of B3, the IC50 is reported as 529 nM and the “pD2 (-log IC50 (M))” value is reported as 6.28 -log IC50 (M). B4 was tested, and the “pD2 (-log IC50 (M))” value was 5.63 -log IC50 (M). YSFKPMPL[dA]RRRIPQSLDSWWTSL (synthetic peptide) [YSFKPMPLa[…]] was tested, and the IC50 was 465000 nM and the “pD2 (-log IC50 (M))” value was 3.33 -log IC50 (M). IPQSLDSWWTSLRRYSFKPMPL[dA]RG (synthetic peptide) [IPQSLDSWWTSLRRYSFKPMPLaRG] was tested, and the IC50 was 17000 nM and the “pD2 (-log IC50 (M))” value was 4.77 -log IC50 (M).
